The values below come from the Human Domainome abundance scans (Beltran et al. 2025).

Sequences and labels used below:
B1: Ankyrin-3, residues 4094 to 4171; numbered along this chain, Q12955 (parent)
chain: MAIVADHLGLSWTELARELNFSVDEINQIRVENPNSLISQSFMLLKKWVTRDGKNATTDALTSVLTKINRIDIVTLLE

± gives the uncertainty stated by the source.

In the data set the parent is B1. In words: abundance fitness (aPCA) (normalised: wild type 0, dead -1); higher = more abundant; growth selection in yeast, the domain comes from the species named. To be noted: Homo sapiens.
In the case of MAIVADHLGLSWTELARELNFSVDEINQIRVENPNSLISQSFMLLKKWVHRDGKNATTDALTSVLTKINRIDIVTLLE, the abundance fitness worked out at 0.051 ± 0.081. With MAIVADHLGLSWTELARELNFSVDEINQIRVENPNSLISQSFMLLKKWVSRDGKNATTDALTSVLTKINRIDIVTLLE, the abundance fitness was -0.016 ± 0.054.

As to MAIVADHLGLSWTELARELNFSVDEINQIRVENPNSLISQSFMLLKKWVYRDGKNATTDALTSVLTKINRIDIVTLLE, the abundance fitness was 0 ± 0.1. As to MAIVADHLGLSWTELARELNFSVDEINQIRVENPNSLISQSFMLLKKWVDRDGKNATTDALTSVLTKINRIDIVTLLE, the abundance fitness was found to be 0.089 ± 0.045.

As to MAIVADHLGLSWTELARELNFSVDEINQIRVENPNSLISQSFMLLKKWVERDGKNATTDALTSVLTKINRIDIVTLLE, the abundance fitness was -0.008 ± 0.075. The figure for MAIVADHLGLSWTELARELNFSVDEINQIRVENPNSLISQSFMLLKKWVARDGKNATTDALTSVLTKINRIDIVTLLE is 0.097 ± 0.059. The figure for MAIVADHLGLSWTELARELNFSVDEINQIRVENPNSLISQSFMLLKKWVRRDGKNATTDALTSVLTKINRIDIVTLLE is -0.094 ± 0.058. Take MAIVADHLGLSWTELARELNFSVDEINQIRVENPNSLISQSFMLLKKWVVRDGKNATTDALTSVLTKINRIDIVTLLE: the abundance fitness is -0.036 ± 0.051.

As to MAIVADHLGLSWTELARELNFSVDEINQIRVENPNSLISQSFMLLKKWVKRDGKNATTDALTSVLTKINRIDIVTLLE, the abundance fitness was 0.098 ± 0.082. The figure for MAIVADHLGLSWTELARELNFSVDEINQIRVENPNSLISQSFMLLKKWVMRDGKNATTDALTSVLTKINRIDIVTLLE is 0.035 ± 0.086. Under MAIVADHLGLSWTELARELNFSVDEINQIRVENPNSLISQSFMLLKKWVFRDGKNATTDALTSVLTKINRIDIVTLLE stands -0.247 ± 0.17; under MAIVADHLGLSWTELARELNFSVDEINQIRVENPNSLISQSFMLLKKWVIRDGKNATTDALTSVLTKINRIDIVTLLE, -0.18 ± 0.1.

As to MAIVADHLGLSWTELARELNFSVDEINQIRVENPNSLISQSFMLLKKWVWRDGKNATTDALTSVLTKINRIDIVTLLE, the abundance fitness was -0.065 ± 0.06. With MAIVADHLGLSWTELARELNFSVDEINQIRVENPNSLISQSFMLLKKWVQRDGKNATTDALTSVLTKINRIDIVTLLE, the abundance fitness was -0.024 ± 0.08. Turning to MAIVADHLGLSWTELARELNFSVDEINQIRVENPNSLISQSFMLLKKWVGRDGKNATTDALTSVLTKINRIDIVTLLE, the abundance fitness was determined as 0.026 ± 0.043.

As to MAIVADHLGLSWTELARELNFSVDEINQIRVENPNSLISQSFMLLKKWMTRDGKNATTDALTSVLTKINRIDIVTLLE, the abundance fitness was -0.082 ± 0.074. Under MAIVADHLGLSWTELARELNFSVDEINQIRVENPNSLISQSFMLLKKWTTRDGKNATTDALTSVLTKINRIDIVTLLE stands -0.115 ± 0.077; under MAIVADHLGLSWTELARELNFSVDEINQIRVENPNSLISQSFMLLKKWRTRDGKNATTDALTSVLTKINRIDIVTLLE, 0.024 ± 0.057. Under MAIVADHLGLSWTELARELNFSVDEINQIRVENPNSLISQSFMLLKKWPTRDGKNATTDALTSVLTKINRIDIVTLLE stands -1.02 ± 0.19; under MAIVADHLGLSWTELARELNFSVDEINQIRVENPNSLISQSFMLLKKWWTRDGKNATTDALTSVLTKINRIDIVTLLE, -0.361 ± 0.092. Under MAIVADHLGLSWTELARELNFSVDEINQIRVENPNSLISQSFMLLKKWSTRDGKNATTDALTSVLTKINRIDIVTLLE stands -0.034 ± 0.065.

With MAIVADHLGLSWTELARELNFSVDEINQIRVENPNSLISQSFMLLKKWYTRDGKNATTDALTSVLTKINRIDIVTLLE, the abundance fitness is 0.021 ± 0.15. Under MAIVADHLGLSWTELARELNFSVDEINQIRVENPNSLISQSFMLLKKWNTRDGKNATTDALTSVLTKINRIDIVTLLE stands 0.057 ± 0.17; under MAIVADHLGLSWTELARELNFSVDEINQIRVENPNSLISQSFMLLKKWLTRDGKNATTDALTSVLTKINRIDIVTLLE, -0.058 ± 0.06. In the case of MAIVADHLGLSWTELARELNFSVDEINQIRVENPNSLISQSFMLLKKWQTRDGKNATTDALTSVLTKINRIDIVTLLE, the abundance fitness was 0.07 ± 0.1. The figure for MAIVADHLGLSWTELARELNFSVDEINQIRVENPNSLISQSFMLLKKWVTRDKKNATTDALTSVLTKINRIDIVTLLE is -0.145 ± 0.13. Under MAIVADHLGLSWTELARELNFSVDEINQIRVENPNSLISQSFMLLKKWVTRDMKNATTDALTSVLTKINRIDIVTLLE stands -0.772 ± 0.26; under MAIVADHLGLSWTELARELNFSVDEINQIRVENPNSLISQSFMLLKKWVTRDDKNATTDALTSVLTKINRIDIVTLLE, -0.578 ± 0.13. Under MAIVADHLGLSWTELARELNFSVDEINQIRVENPNSLISQSFMLLKKWVTRDHKNATTDALTSVLTKINRIDIVTLLE stands -0.3 ± 0.28; under MAIVADHLGLSWTELARELNFSVDEINQIRVENPNSLISQSFMLLKKWVTRDAKNATTDALTSVLTKINRIDIVTLLE, -0.457 ± 0.077.

Regarding MAIVADHLGLSWTELARELNFSVDEINQIRVENPNSLISQSFMLLKKWVTRDCKNATTDALTSVLTKINRIDIVTLLE, the abundance fitness is -0.545 ± 0.15. The figure for MAIVADHLGLSWTELARELNFSVDEINQIRVENPNSLISQSFMLLKKWVTRDLKNATTDALTSVLTKINRIDIVTLLE is -0.832 ± 0.13; for MAIVADHLGLSWTELARELNFSVDEINQIRVENPNSLISQSFMLLKKWVTRDFKNATTDALTSVLTKINRIDIVTLLE it is -0.728 ± 0.14; for MAIVADHLGLSWTELARELNFSVDEINQIRVENPNSLISQSFMLLKKWVTRDPKNATTDALTSVLTKINRIDIVTLLE it is -0.149 ± 0.051. The figure for MAIVADHLGLSWTELARELNFSVDEINQIRVENPNSLISQSFMLLKKWVTRDEKNATTDALTSVLTKINRIDIVTLLE is -0.111 ± 0.072.
